Experimental data taken from publication PMC4940160, “Architecture and RNA binding of the human negative elongation factor”.

How the values were obtained:
[1] = target: NELF-A (6-188);NELF-C (183-590) (Homo sapiens;Homo sapiens, UniProt Q9H3P2;Q8IXH7 6-188;183-590, |); assay: fluorescence anisotropy; NELF-AC: 30 mM NaCl, 3 mM MgCl2, 10 mM Na-HEPES pH 7.4, 2 mM DTT, 50 ug/ml BSA; other NELF complexes: same with 60 mM NaCl and 5 ug/ml yeast tRNA; 10 nM nucleic acid, incubated at RT, read at 30 C; details: protein: recombinant;recombinant, tags: N-His6 removed by thrombin;none, copies: 1;1
[2] = target: NELF-A (6-188) patches 1,4;NELF-C (183-590) patches 1,2,3,4 (Homo sapiens;Homo sapiens, UniProt Q9H3P2;Q8IXH7 6-188;183-590, R65Q;R66Q;K146M;K161M;K168M;R175Q|R291Q;K315M;K371M;K372M;K374M;K384M;K388M;R419 …); assay: as above; details: protein: recombinant;recombinant; tags: N-His6 removed by thrombin;none; copies: 1;1; label: 5'-FAM; single strand
[3] = target: T1, NELF-A (6-188) patches 1,4;NELF-C (183-590) patches 1,2,4 (Homo sapiens;Homo sapiens, UniProt Q9H3P2;Q8IXH7 6-188;183-590, R65Q;R66Q;K146M;K161M;K168M;R175Q|R291Q;K315M;K371M;K372M;K374M;R419Q;R506Q); assay: as above; details: protein: recombinant;recombinant; tags: N-His6 removed by thrombin;none; copies: 1;1; label: 5'-FAM; single strand
[4] = target: T2, NELF-A full-length;NELF-B;NELF-D patch mutant (called NELF-C) (Homo sapiens;Homo sapiens;Homo sapiens, UniProt Q9H3P2;Q8WX92;Q8IXH7-4 1-528;49-628;1-581, ||R282Q;K306M;K362M;K363M;K365M;K375M;K379M;R410Q;R497Q); assay: fluorescence anisotropy; yeast tRNA 5 ug/ml; error as printed; NELF-AC: 30 mM NaCl, 3 mM MgCl2, 10 mM Na-HEPES pH 7.4, 2 mM DTT, 50 ug/ml BSA; other NELF complexes: same with 60 mM NaCl and 5 ug/ml yeast tRNA; 10 nM nucleic acid, incubated at RT, read at 30 C; details: protein: recombinant;recombinant;recombinant, tags: none stated;N-His6-TEV in NELF-B and NELF-BE constructs (cleaved);N-His6-TEV, copies: 1;1;1, label: 5'-FAM, single strand
[5] = target: NELF-A full-length;NELF-B;NELF-D (called NELF-C) (Homo sapiens;Homo sapiens;Homo sapiens, UniProt Q9H3P2;Q8WX92;Q8IXH7-4 1-528;49-628;1-581, ||); assay: fluorescence anisotropy; yeast tRNA 5 ug/ml; NELF-AC: 30 mM NaCl, 3 mM MgCl2, 10 mM Na-HEPES pH 7.4, 2 mM DTT, 50 ug/ml BSA; other NELF complexes: same with 60 mM NaCl and 5 ug/ml yeast tRNA; 10 nM nucleic acid, incubated at RT, read at 30 C; details: protein: recombinant;recombinant;recombinant, tags: none stated;N-His6-TEV in NELF-B and NELF-BE constructs (cleaved);N-His6-TEV, cleaved, copies: 1;1;1, label: 5'-FAM
[6] = target: NELF-A full-length;NELF-B;NELF-D patch mutant (called NELF-C);NELF-E (1-138) (Homo sapiens;Homo sapiens;Homo …, UniProt Q9H3P2;Q8WX92;Q8IXH7-4;P18615 1-528;49-628;1-581;1-138, ||R282Q;K306M;K362M;K363M;K365M;K375M;K379M;R410Q;R497Q|); assay: as above; details: protein: recombinant;recombinant;recombinant;recombinant; copies: 1;1;1;1; label: 5'-FAM; single strand
NELF-B;NELF-E (1-138) = NELF-B;NELF-E (1-138) (Homo sapiens;Homo sapiens, UniProt Q8WX92;P18615 49-628;1-138, |); assay: as above; details: protein: recombinant;recombinant, tags: N-His6-TEV in NELF-B and NELF-BE constructs (cleaved);none stated, copies: 1;1, label: 5'-FAM
[7] = target: NELF-A full-length;NELF-B;NELF-D (called NELF-C);NELF-E (1-138) (Homo sapiens;Homo sapiens;Homo …, UniProt Q9H3P2;Q8WX92;Q8IXH7-4;P18615 1-528;49-628;1-581;1-138, |||); assay: as above; details: protein: recombinant;recombinant;recombinant;recombinant, copies: 1;1;1;1, label: 5'-FAM
NELF-B = NELF-B (Homo sapiens, UniProt Q8WX92 49-628); assay: as above; details: protein: recombinant; tags: N-His6-TEV in NELF-B and NELF-BE constructs (cleaved); label: 5'-FAM; single strand
[8] = target: T1, NELF-A (6-188) patches 1,4;NELF-C …; assay: fluorescence anisotropy; text says impaired; Bmax printed 12.92; NELF-AC: 30 mM NaCl, 3 mM MgCl2, 10 mM Na-HEPES pH 7.4, 2 mM DTT, 50 ug/ml BSA; other NELF complexes: same with 60 mM NaCl and 5 ug/ml yeast tRNA; 10 nM nucleic acid, incubated at RT, read at 30 C; details: protein: recombinant;recombinant; tags: N-His6 removed by thrombin;none; copies: 1;1; label: 5'-FAM; single strand
[9] = target: T2, NELF-A full-length;NELF-B;NELF-D patch …; assay: fluorescence anisotropy; yeast tRNA 5 ug/ml; NELF-AC: 30 mM NaCl, 3 mM MgCl2, 10 mM Na-HEPES pH 7.4, 2 mM DTT, 50 ug/ml BSA; other NELF complexes: same with 60 mM NaCl and 5 ug/ml yeast tRNA; 10 nM nucleic acid, incubated at RT, read at 30 C; details: protein: recombinant;recombinant;recombinant; tags: none stated;N-His6-TEV in NELF-B and NELF-BE constructs (cleaved);N-His6-TEV, cleaved; copies: 1;1;1; label: 5'-FAM; single strand
[10] = target: NELF-A full-length;NELF-B;NELF-D (called NELF-C);NELF-E full-length (Homo sapiens;Homo sapiens;Homo …, UniProt Q9H3P2;Q8WX92;Q8IXH7-4;P18615 1-528;49-628;1-581;1-380, |||); assay: as above; details: protein: recombinant;recombinant;recombinant;recombinant; copies: 1;1;1;1; label: 5'-FAM; hairpin

NELF-A (6-188);NELF-C (183-590), sequence (Q9H3P2 6-188, chain 1 of 2): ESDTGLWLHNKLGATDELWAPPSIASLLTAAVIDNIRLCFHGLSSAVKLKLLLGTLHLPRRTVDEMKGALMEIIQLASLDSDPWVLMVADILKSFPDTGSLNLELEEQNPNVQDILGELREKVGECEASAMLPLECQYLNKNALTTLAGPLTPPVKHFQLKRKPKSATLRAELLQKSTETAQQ
NELF-A (6-188);NELF-C (183-590), sequence (Q8IXH7 183-590, chain 2 of 2): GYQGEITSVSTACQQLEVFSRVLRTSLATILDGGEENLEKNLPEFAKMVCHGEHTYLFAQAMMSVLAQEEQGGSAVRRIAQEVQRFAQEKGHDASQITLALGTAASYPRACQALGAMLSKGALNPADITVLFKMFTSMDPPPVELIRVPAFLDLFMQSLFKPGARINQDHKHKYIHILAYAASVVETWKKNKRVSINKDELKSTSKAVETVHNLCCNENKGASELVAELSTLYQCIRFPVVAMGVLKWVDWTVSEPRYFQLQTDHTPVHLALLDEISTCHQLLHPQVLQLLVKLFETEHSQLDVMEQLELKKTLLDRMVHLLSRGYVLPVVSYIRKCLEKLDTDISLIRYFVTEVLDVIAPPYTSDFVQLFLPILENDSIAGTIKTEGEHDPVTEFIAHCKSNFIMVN
NELF-A full-length;NELF-B;NELF-D (called NELF-C), sequence (Q9H3P2 whole entry, chain 1 of 3): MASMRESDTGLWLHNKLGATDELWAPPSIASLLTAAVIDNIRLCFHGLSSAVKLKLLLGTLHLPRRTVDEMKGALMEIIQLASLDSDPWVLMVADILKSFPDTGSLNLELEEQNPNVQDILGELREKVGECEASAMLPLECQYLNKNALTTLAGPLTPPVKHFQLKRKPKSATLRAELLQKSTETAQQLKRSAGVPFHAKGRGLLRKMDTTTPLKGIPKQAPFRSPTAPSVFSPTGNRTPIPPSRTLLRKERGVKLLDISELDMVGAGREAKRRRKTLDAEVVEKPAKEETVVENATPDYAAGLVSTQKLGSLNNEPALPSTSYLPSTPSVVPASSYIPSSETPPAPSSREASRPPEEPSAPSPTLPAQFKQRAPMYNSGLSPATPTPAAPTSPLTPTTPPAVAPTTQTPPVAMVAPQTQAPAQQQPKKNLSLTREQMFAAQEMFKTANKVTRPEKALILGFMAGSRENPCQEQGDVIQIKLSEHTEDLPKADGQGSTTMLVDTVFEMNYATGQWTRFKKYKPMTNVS
NELF-A full-length;NELF-B;NELF-D (called NELF-C), sequence (Q8WX92 whole entry, chain 2 of 3): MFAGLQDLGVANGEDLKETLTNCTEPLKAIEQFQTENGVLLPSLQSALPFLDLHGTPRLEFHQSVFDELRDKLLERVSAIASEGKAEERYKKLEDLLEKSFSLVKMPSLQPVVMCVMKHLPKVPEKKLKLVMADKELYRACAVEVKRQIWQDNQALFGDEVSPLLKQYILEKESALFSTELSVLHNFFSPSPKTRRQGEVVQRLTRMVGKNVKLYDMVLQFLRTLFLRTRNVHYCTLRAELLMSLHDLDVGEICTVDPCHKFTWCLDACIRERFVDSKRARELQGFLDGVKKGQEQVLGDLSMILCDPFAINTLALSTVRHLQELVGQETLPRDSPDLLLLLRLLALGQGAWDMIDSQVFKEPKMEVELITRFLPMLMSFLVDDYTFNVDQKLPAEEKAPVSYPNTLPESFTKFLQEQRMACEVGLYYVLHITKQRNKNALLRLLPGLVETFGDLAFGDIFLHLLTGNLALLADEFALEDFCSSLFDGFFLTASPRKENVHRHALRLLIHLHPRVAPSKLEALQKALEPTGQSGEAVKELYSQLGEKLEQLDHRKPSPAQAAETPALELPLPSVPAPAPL
NELF-A full-length;NELF-B;NELF-D (called NELF-C), sequence (Q8IXH7 10-590, chain 3 of 3): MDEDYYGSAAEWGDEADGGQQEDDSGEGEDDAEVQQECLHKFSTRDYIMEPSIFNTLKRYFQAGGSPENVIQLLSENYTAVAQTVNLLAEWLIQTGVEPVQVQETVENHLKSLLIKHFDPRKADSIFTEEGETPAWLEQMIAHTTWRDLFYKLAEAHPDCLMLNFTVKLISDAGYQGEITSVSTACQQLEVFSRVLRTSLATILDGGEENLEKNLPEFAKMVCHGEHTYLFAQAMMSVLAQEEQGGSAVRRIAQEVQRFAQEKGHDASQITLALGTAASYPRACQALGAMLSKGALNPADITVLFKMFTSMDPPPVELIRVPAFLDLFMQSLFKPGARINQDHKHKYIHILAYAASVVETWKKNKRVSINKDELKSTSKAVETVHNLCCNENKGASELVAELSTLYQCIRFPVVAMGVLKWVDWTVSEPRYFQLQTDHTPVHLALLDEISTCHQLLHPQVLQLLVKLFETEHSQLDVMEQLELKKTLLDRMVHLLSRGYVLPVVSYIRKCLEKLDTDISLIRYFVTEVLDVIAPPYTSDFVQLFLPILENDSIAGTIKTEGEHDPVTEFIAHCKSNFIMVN
NELF-A full-length;NELF-B;NELF-D (called NELF-C);NELF-E (1-138), sequence (Q9H3P2 whole entry, chain 1 of 4): as the sequence (Q9H3P2 whole entry, chain 1 of 3) above
NELF-A full-length;NELF-B;NELF-D (called NELF-C);NELF-E (1-138), sequence (Q8WX92 whole entry, chain 2 of 4): as the sequence (Q8WX92 whole entry, chain 2 of 3) above
NELF-A full-length;NELF-B;NELF-D (called NELF-C);NELF-E (1-138), sequence (Q8IXH7 10-590, chain 3 of 4): as the sequence (Q8IXH7 10-590, chain 3 of 3) above
NELF-A full-length;NELF-B;NELF-D (called NELF-C);NELF-E (1-138), sequence (P18615 1-138, chain 4 of 4): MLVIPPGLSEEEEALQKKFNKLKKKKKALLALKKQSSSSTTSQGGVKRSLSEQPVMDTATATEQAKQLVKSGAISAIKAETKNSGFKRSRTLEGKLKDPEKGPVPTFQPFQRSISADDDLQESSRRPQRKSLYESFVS
NELF-B;NELF-E (1-138), sequence (Q8WX92 whole entry, chain 1 of 2): as the sequence (Q8WX92 whole entry, chain 2 of 3) above
NELF-B;NELF-E (1-138), sequence (P18615 1-138, chain 2 of 2): as the sequence (P18615 1-138, chain 4 of 4) above

B1: 60% GC ssRNA (ssRNA)
RNA: AAGGGGAGCGGGGGAGGAUAAUAGG
**Q.** How did the Kd ([1]; label: 5'-FAM, single strand) turn out when B1 was run?
**A.** The Kd was 6870 ± 460 nM.

**Q.** What about the Kd [2] of the same binder?
**A.** Its Kd is 14300 ± 2670 nM.

**Q.** What about the Kd [3] of the same binder?
**A.** The Kd was 14300 ± 2410 nM.

**Q.** And the Kd [4]?
**A.** The Kd was 290 nM.

**Q.** What about the Kd ([5]; single strand) of the same binder?
**A.** The Kd was 74 ± 14 nM.

**Q.** And the Kd [6]?
**A.** Its Kd is 94 ± 20 nM.

**Q.** And the Kd (NELF-B;NELF-E (1-138); single strand)?
**A.** Its Kd is 2830 ± 1000 nM.

**Q.** And the Kd ([7]; single strand)?
**A.** Its Kd is 30 ± 7 nM.

**Q.** What about the Kd (NELF-B) of the same binder?
**A.** Its Kd is 8500 ± 1590 nM.

B2: 60% GC ssDNA (ssDNA)
DNA: AAGGGGAGCGGGGGAGGATAATAGG
**Q.** What does the source list for B2?
**A.** Kd ([1]; label: 5'-FAM, single strand): 17500 ± 1330 nM; Kd [8]: 12900 ± 2280 nM; Kd ([5]; single strand): 100 ± 30 nM; Kd [6]: 300 ± 80 nM; Kd (NELF-B;NELF-E (1-138); single strand): 17400 ± 3500 nM; Kd [9]: 770 ± 20 nM; Kd ([7]; single strand): 30 ± 10 nM; Kd (NELF-B): 6310 ± 1920 nM

B3: HIV-1 TAR RNA stem loop (structured_RNA)
RNA: CCAGAUCUGAGCCUGGGAGCUCUCUGG
**Q.** Which Kd ([5]; hairpin) does the source give for B3 here?
**A.** The Kd was 1320 ± 180 nM.

**Q.** What about the Kd [10] of the same binder?
**A.** The Kd was 146 ± 30 nM.

**Q.** And the Kd (NELF-B;NELF-E (1-138); hairpin)?
**A.** The Kd was 5590 ± 1050 nM.

**Q.** What about the Kd ([7]; hairpin) of the same binder?
**A.** Its Kd is 869 ± 140 nM.

B4: junB ssRNA (ssRNA)
RNA: AGCGGCCAGGCCAGCCUCGGAGCCA
**Q.** B4 was tested. Which Kd ([1]; label: 5'-FAM, single strand) did it give?
**A.** The Kd was ~8000 nM.

B5: c-fos ssDNA (ssDNA)
DNA: AAGACTGAGCCGGCGGCCGC
**Q.** Does B5 bind ([1]; label: 5'-FAM, single strand)?
**A.** Result: binds

B6: 44% GC ssRNA (ssRNA)
RNA: ACCCCACAACUAAAAAAUCCCAACC
**Q.** Does B6 bind ([1]; label: 5'-FAM, single strand)?
**A.** Result: no binding

B7: 60% GC dsDNA (dsDNA)
DNA 1: AAGGGGAGCGGGGGAGGATAATAGG
DNA 2: CCTATTATCCTCCCCCGCTCCCCTT
**Q.** Does B7 bind ([1]; label: 5'-FAM)?
**A.** Result: no binding

B8: 60% GC DNA-RNA hybrid (DNA:RNA)
DNA: AAGGGGAGCGGGGGAGGATAATAGG
RNA: CCUAUUAUCCUCCCCCGCUCCCCUU
**Q.** Does B8 bind [1]?
**A.** Result: no binding
